B1: H56V, Q9NAV8 (parent)
chain: MGFKQDIATIRGDLRTYAQDIFLAFLNKYPDERRYFKNYVGKSDQELKSMAKFGDHTEKVFNLMMEVADRATDCVPLASDANTLVQMKQHSSLTTGNFEKLFVALVEYMRASGQSFDSQSWDRFGKNLVSALSSAGMK

Variants of: B1
Settings: Amphitrite ornata; pH 7; 20 °C; Urea; UV?visible spectrophotometer; potassium phosphate 100 mM; transition: 2; reversible: yes; structure 1EW6; whole UniProt chain shown

| Variant | ddG of mutation (higher = less stable) | denaturant midpoint (higher = more stable) | unfolding free energy |
| --- | --- | --- | --- |
| MGFKQDIATIRGDLRTYAQDIFLAFLNKYPDERRYFKNYVGKSDQELKSMAKFGDVTEKVFNLMMEVADRATDCVPLASDANTLVQMKQHSSLTTGNFEKLFVALVEYMRASGQSFDSQSWDRFGKNLVSALSSAGMK [H56V] | -5.1 kcal/mol | 5.35 M | 7.52 kcal/mol |

Same assay, conditions: Amphitrite ornata; pH 7; Thermal; UV?visible spectrophotometer; potassium phosphate 100 mM; transition: 2; reversible: yes; structure 1EW6; whole UniProt chain shown

| Variant | Tm | change of melting temperature, mutant - wild type (higher = more stable) |
| --- | --- | --- |
| MGFKQDIATIRGDLRTYAQDIFLAFLNKYPDERRYFKNYVGKSDQELKSMAKFGDVTEKVFNLMMEVADRATDCVPLASDANTLVQMKQHSSLTTGNFEKLFVALVEYMRASGQSFDSQSWDRFGKNLVSALSSAGMK [H56V] | 61 °C | 7 °C |
